Experiment: yeast display, Sf9 membrane polyspecificity reagent, FACS + sequencing; frameworks hold sequencing errors
In short: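 Sorting gates, low and high (top ~1%), were placed on anti-HA fluorescence to track expression and on streptavidin fluorescence to track reagent binding. A clone's polyreactivity label is taken from the gate it came out of. The reagent was 10% biotinylated, detergent-solubilized Sf9 membrane, applied for 1 hour at 4 °C to galactose-induced yeast display cells.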

QVQLVESGGGLVQAGGSLRLSCAASGFIFNYYAMGWYIQAPGKERELVAAISTNGGSTYYADSVKGRFTISRDNAKNTVYLQMNSLKPEDTAVYYCAARSYGVSGRYYRYTFGMDYWGQGTQVTVSS
polyreactivity (PSR sort gate): high polyreactivity

QVQLVESGGGLVQAGGSLRLSCAASGFIFNYYAMGWYRQAPGKERELVAISRGGSTNYADSVKGRFTISRDNAKNTVYLQMNSLKPEDTAVYYCAATKRYASGMYYWGQGTQVTVSS
polyreactivity (PSR sort gate): high polyreactivity

QVQLVESGGGLVQAGGSLRLSCAASGFIFPDNVMGWYRQAPGKERELVAAISRSGGSTYYADSVKGRFTISRDNAKNTVYLQMNSLKPEDTAVYYCAVKFVRYRQGIVLYDYWGQGTQVTVSS
polyreactivity (PSR sort gate): high polyreactivity

QVQLVESGGGLVQAGGSLRLSCAASGFIFPEYAMGWYRQAPGKERELVAAINWSGGNTYYADSVKGRFTISRDNAKNTVYLQMNSLKPEDTAVYYCNVDDWVTDDDYWGQGTQVTVSS
polyreactivity (PSR sort gate): low polyreactivity

QVQLVESGGGLVQAGGSLRLSCAASGFIFPFYAMGWYRQAPGKERELGASITWSGSTYADSVKGRFTISRDNAKNTVYLQMNSLKPEDTAVYYCNTDPRSVVGWYAYWGQGTQVTVSS
polyreactivity (PSR sort gate): low polyreactivity

QVQLVESGGGLVQAGGSLRLSCAASGFIFPFYAMGWYRQAPGKERELVAGIRGVGSTNYADSVKGRFTISRDNAKNTVYLQMNSLKPEDTAVYYCNKELYDFKDRNLTAFLLRIFDSWGQGTQVTVSS
polyreactivity (PSR sort gate): low polyreactivity

QVQLVESGGGLVQAGGSLRLSCAASGFIFPGNARGWYRQAPGKERELVAAISNSGSRTYYADSVKGRFTISRDNAKNTVYLQMNSLKPEDTAVYYCAALNYHKFAHKYDYWGQGTQVTVSS
polyreactivity (PSR sort gate): low polyreactivity

QVQLVESGGGLVQAGGSLRLSCAASGFIFPGNTMGWYRQAPGKERELVAAITRSGASTYYADSVKGRFTISRDNAKNTVYLQMNSLKPEDTAVYYCAERYYYGLRYPDYYYWGQGTQVTVSS
polyreactivity (PSR sort gate): high polyreactivity

QVQLVESGGGLVQAGGSLRLSCAASGFIFPGNVMGWYIQAPWKERELVAAISSGGGSTYYADSVKGRFTISRDNAKNSVYLQMNSLKPEDTAVYYCAKRTPRKWGQGTQVTVSS
polyreactivity (PSR sort gate): high polyreactivity

QVQLVESGGGLVQAGGSLRLSCAASGFIFPGYAMGWYRQAPGKERELVAVISGSGARTYYADSVKGRFTISRDNAKNTVYLQMNSLKPEDTAVYYCATDYCRTRQYRPGDYWGQGTQVTVSS
polyreactivity (PSR sort gate): high polyreactivity

QVQLVESGGGLVQAGGSLRLSCAASGFIFPKNAMGWYRQAPGKERELVAAISRSSGNTYYADSVKGRFTISRDNAKNTVYLQMNSLKPEDTAVYYCAASYWPYRGPVGGSKMYYWGQGTQVTVSS
polyreactivity (PSR sort gate): high polyreactivity

QVQLVESGGGLVQAGGSLRLSCAASGFIFPNNAMGWYRQAPGKERELVARISYGGGDTHYADSVKGRFTISRDNAKNTVYLERNSLKPEDTAVYYCAVKDGQDDYWGQGTQVTVSS
polyreactivity (PSR sort gate): low polyreactivity

QVQLVESGGGLVQAGGSLRLSCAASGFIFPPYDMGWYRQAPGKERELVADITYSDGITYYADSVKGRFTISRDNAMNTVYLQMNSLKPEDTAVYYCNADYSRIGPEVDYWGQGTQVTVSS
polyreactivity (PSR sort gate): low polyreactivity

QVQLVESGGGLVQAGGSLRLSCAASGFIFPRYAKGWYRQAPGKERELVAAISKSGGRTYYADSEKGGFTISRDYAKNTFYLQMNSLKPEDTAVYYCADGRISRFSRYYYWGQGTHVTVSS
polyreactivity (PSR sort gate): high polyreactivity

QVQLVESGGGLVQAGGSLRLSCAASGFIFPRYAMGWSRQRPGKESELVAAISRSGGITRYADSVKGRFTISRDNAKNTVYLQRNSLKPEDTAVYYCAAYIQGWVTAEWVRDDYWGKGTQVTVSS
polyreactivity (PSR sort gate): high polyreactivity

QVQLVESGGGLVQAGGSLRLSCAASGFIFPRYVMGWSRQAPGKERELVAAINSDISTNYADSVKGRFTISRDNAKNTVYLQMNSLKPEDTAVYDCAAERWDDRWEFDYWGQGTQVTVSS
polyreactivity (PSR sort gate): low polyreactivity

QVQLVESGGGLVQAGGSLRLSCAASGFIFPSYAMGWYRQAPGKERELVATISKRVATTYYADSVKGRFTISRDNAKNTVYLQMNSLKPEDTAVYYCAAAYRGYARHDYWGQGTQVTVSS
polyreactivity (PSR sort gate): high polyreactivity

QVQLVESGGGLVQAGGSLRLSCAASGFIFPTNVMGWYRQAPGKEREFVASITWRGGGTYYADSVKGRFTISRDNAKNTVYVQMNSLKPEDTAVYYCAAGRSWSSYWKYDYWGQGTQVTVSS
polyreactivity (PSR sort gate): low polyreactivity

QVQLVESGGGLVQAGGSLRLSCAASGFIFPWYAMGWYRQAPGKERELVAAISSSGGRTYYADSVKGRFTISRDNAKNTVYLQMNSLKPEDTAVYYCNVANGLSQVYRYNYWGQGTQVTVSS
polyreactivity (PSR sort gate): high polyreactivity

QVQLVESGGGLVQAGGSLRLSCAASGFIFPYDAMGWYRQAPGKERELVAAITYRDGSTYYADSVKGRFTISRDNAKNTVYLQMNSLKPEDTAVYYCAADRYVYWDLYGYWGQGTQVTVSS
polyreactivity (PSR sort gate): low polyreactivity

QVQLVESGGGLVQAGGSLRLSCAASGFIFPYYAMGLYRQAPGKEREMVAAITFSATRTYYADSVKGRFTISRDNAKNTVYLQMNSLKPEDTADYYCKARGGVYGSYFEFNYWGQGSQVTVSS
polyreactivity (PSR sort gate): low polyreactivity

QVQLVESGGGLVQAGGSLRLSCAASGFIFPYYAMGWYRQAPGKERELVAAISQSGGSTYYADSVKGRFTISRDNAKNTVYLQMNSLKPEDTAVYYCAKYIPSYHDGDYWGQGTQVTVSS
polyreactivity (PSR sort gate): low polyreactivity

QVQLVESGGGLVQAGGSLRLSCAASGFIFPYYAMGWYRQAPGKERELVAAITSSGGRTYYADSVKGRFTISRDNAKNTVYFQMNSLKPEDTAVYYCAAYYLTPTDVEYDYWGQGTQVTVSS
polyreactivity (PSR sort gate): high polyreactivity

QVQLVESGGGLVQAGGSLRLSCAASGFIFQAYAMGWYRQAPGKERELVAAISSSGGSTYYADSVKGRFTISRDNAKNTVYLQMNSLKPEDTAVYYCAARSRRVSLIRDSYGYWGQGTQVTVSS
polyreactivity (PSR sort gate): high polyreactivity

QVQLVESGGGLVQAGGSLRLSCAASGFIFQPYAMGWYRQAPGKERELVAAITSRGGRTYYADSVQGRFTICRDNAKNTVYLQMNSLKPEDTSVYYCNADIYASEYYYWGQGTQVTVSS
polyreactivity (PSR sort gate): low polyreactivity

QVQLVESGGGLVQAGGSLRLSCAASGFIFQPYSLGWYRQAPGKERELVAAITSRGGRTYYADSVKGRFTISRDNAKNTVYLQMNSLKPEDTAVYYCNADIYASEYYYWGQGTQVTVSS
polyreactivity (PSR sort gate): low polyreactivity

QVQLVESGGGLVQAGGSLRLSCAASGFIFQQNAMGWYIQAPGKERELVAAISRSGGRTYYADSVKGRFTISRDNAKNTVYLQMNSLKPEDSAVYYCATRFYTKAFEYDYWGQGTQVTVSS
polyreactivity (PSR sort gate): high polyreactivity

QVQLVESGGGLVQAGGSLRLSCAASGFIFQRYAMGWYRQAPGKERELVAAITRTGGRTYYSDSVKGRFTISRDNAKNTVYLQMNSLKPEDTAVYYCAADRTMSYEYWGQGTKVTVSS
polyreactivity (PSR sort gate): high polyreactivity

QVQLVESGGGLVQAGGSLRLSCAASGFIFRAYTMGWYRQAPGKERELVAAITSGSSTNYADSVKGRFTISRDNAKNTVYLQMNSLKPEDTAVYYCNTDWVWLIIEYDYWGQGTQVTVSS
polyreactivity (PSR sort gate): low polyreactivity

QVQLVESGGGLVQAGGSLRLSCAASGFIFRDNAMGWYRQAPGKERELVAAISERGGRTYYADSVKGRFTISRDNAKNTVYLQMNSLKPEDTAVYYCAAKTIYDTRGIRHYYWGQGTQVTVSS
polyreactivity (PSR sort gate): high polyreactivity

QVQLVESGGGLVQAGGSLRLSCAASGFIFRGNTMGWYRQAPGKERELVAAISASGGSTYYADSVKGRFTISRDNAKNTVYLQMNSLKPEDTAVYYCNVAVIYRSRTYWYGMDYWGQGTQLTVSS
polyreactivity (PSR sort gate): high polyreactivity

QVQLVESGGGLVQAGGSLRLSCAASGFIFRGYAMGWYRQAPGKERELVAAISRSGGSTYYADSVKGRFTISRDNAKNTVYLQMNSLKPEDTAVYFCAVALFETGHYYWGQGTQVTVSS
polyreactivity (PSR sort gate): high polyreactivity

QVQLVESGGGLVQAGGSLRLSCAASGFIFRGYAMGWYRQAPGKERELVAAISRSGGSTYYADSVKGRFTISRDNAKNTVYLQMNSLKPEDTAVYYCAARSFYSKGYDYWGQGTQVTVSS
polyreactivity (PSR sort gate): high polyreactivity

QVQLVESGGGLVQAGGSLRLSCAASGFIFRGYAMGWYRQAPGKERELVAAITYSTGNTYYADSVKGRFTISRDNAKNTVYLQMNSLKPEDTAVYYCNKVVRKFIGGYVYYSGGYWGQGTQVTVSS
polyreactivity (PSR sort gate): low polyreactivity

QVQLVESGGGLVQAGGSLRLSCAASGFIFRKYTMGWYRQAPGKERELVATIDSSGGSTYYADSVKGRFTISRDNAKNTVYLQMNSLKPEDTAVYYCNADLRELSPWYWYSGEMDYWGQGTQVTVSS
polyreactivity (PSR sort gate): low polyreactivity

QVQLVESGGGLVQAGGSLRLSCAASGFIFRLNAMGWYTQAPGKERELVATITSSGSTSYADSVKGRFTISRDNAKNTVYLQMNSLKPEDTAVYYCAARRLRYRYPLYSRNYWGQGTQVTVSS
polyreactivity (PSR sort gate): high polyreactivity

QVQLVESGGGLVQAGGSLRLSCAASGFIFRLYALGWYRQAPGKERELVAAIRSAGSTYYADSVKGRFTISRDNAKNTVYLQMNSLKPEDTPVYYCAARSGHTYYFIGNYWGQGTQVTVSS
polyreactivity (PSR sort gate): high polyreactivity

QVQLVESGGGLVQAGGSLRLSCAASGFIFRLYAMGLYRQAPGKERELVAAITTSGDSTYYADSVKGRFTISRDNSKNTFYLQMNCLKPEDTAVYYCAARYYYPPKRGYWGQGSQVTVSS
polyreactivity (PSR sort gate): high polyreactivity

QVQLVESGGGLVQAGGSLRLSCAASGFIFRPNAMGWYRQAPGKERELVAAITGRSGSTNYADSVKGRFTISRDNAKNTVYLQMNSLKPEDTAVYYCAARVWQGYYPGYYYWGQGTQVTVSS
polyreactivity (PSR sort gate): high polyreactivity

QVQLVESGGGLVQAGGSLRLSCAASGFIFRPYTMGWYRQAPGKERELVAAITSGGSTYYADSVKGRFTISRDNAKNTVYLQMNSLKPEDTAVYYCAARYQLYRRGYDYWGQGTQVTVSS
polyreactivity (PSR sort gate): high polyreactivity

QVQLVESGGGLVQAGGSLRLSCAASGFIFRRNAMGWYRQAPGKERELVATISSGVGTYYADSVKGRFTISRDNAKNTVYLQMNSLKPEDTAVYYCATLVHYLYTGYRAYYSYRLDYWGQGTQVTVSS
polyreactivity (PSR sort gate): high polyreactivity

QVQLVESGGGLVQAGGSLRLSCAASGFIFRRNVMGWYRQAPGKERELVAAISRSGASTYYADSVKGRFTISRDNAKNTVYLQMNSLKPEDTAVYYCNKRDKVTYSYDYWGQGTQVTVSS
polyreactivity (PSR sort gate): high polyreactivity

QVQLVESGGGLVQAGGSLRLSCAASGFIFRRYAMGWYRPAPGKVWELVAAITLRGGSTYYADSVKGRFTISRDNAKNTVYLQMNSLKPEATAVYYCAAGVRGQHDGYYWGQGTQETVSS
polyreactivity (PSR sort gate): high polyreactivity

From the nanobody polyreactivity screen of Harvey et al. (2022)
